In the supplement of paper PMC9112550, “Optimization of the antimicrobial peptide Bac7 by deep mutational scanning” (BMC Biology, 2022):

system: Escherichia coli TOP10; assay: shrunken log2 fold change of peptide-encoding DNA abundance (4.5 h post-induction vs induction); higher = less antimicrobial activity (less host growth inhibition); settings: time post-induction: 4.5 h; library: site-saturation at positions 5, 18, 19, 20
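Further: peptides expressed intracellularly from a pBAD plasmid library in pooled LB shake-flask culture, induced with 0.3% L-arabinose, DNA abundance read by NGS, three biological replicates, DESeq2 with apeglm shrinkage.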

| Sequence | shrunken log2 fold change |
| --- | --- |
| RRIRTRPPRLPRPRPRPMFRPRP | -0.193 |
| RRIRTRPPRLPRPRPRPMHAPRP | -0.112 |
| RRIRTRPPRLPRPRPRPMHSPRP | 0.02 |
| RRIRTRPPRLPRPRPRPMIRPRP | -0.0798 |
| RRIRTRPPRLPRPRPRPMIWPRP | -0.0322 |
| RRIRTRPPRLPRPRPRPMMNPRP | 0.0667 |
| RRIRTRPPRLPRPRPRPMNIPRP | -0.259 |
| RRIRTRPPRLPRPRPRPMNYPRP | -0.949 |
| RRIRTRPPRLPRPRPRPMPDPRP | -0.0705 |
| RRIRTRPPRLPRPRPRPMQFPRP | -0.0258 |
| RRIRTRPPRLPRPRPRPMQLPRP | -0.191 |
| RRIRTRPPRLPRPRPRPMQSPRP | -0.349 |
| RRIRTRPPRLPRPRPRPMRNPRP | 0.356 |
| RRIRTRPPRLPRPRPRPMSCPRP | -0.181 |
| RRIRTRPPRLPRPRPRPMVDPRP | -0.00822 |
| RRIRTRPPRLPRPRPRPMWGPRP | -0.00569 |
| RRIRTRPPRLPRPRPRPMWKPRP | 0.00922 |
| RRIRTRPPRLPRPRPRPMWPPRP | -0.0463 |
| RRIRTRPPRLPRPRPRPNADPRP | -0.00181 |
| RRIRTRPPRLPRPRPRPNAEPRP | 0.25 |
| RRIRTRPPRLPRPRPRPNCHPRP | -0.341 |
| RRIRTRPPRLPRPRPRPNCMPRP | -0.16 |

| Sequence | shrunken log2 fold change |
| --- | --- |
| RRIRTRPPRLPRPRPRPNCPPRP | -0.0894 |
| RRIRTRPPRLPRPRPRPNDCPRP | 0.0184 |
| RRIRTRPPRLPRPRPRPNDLPRP | -0.354 |
| RRIRTRPPRLPRPRPRPNDRPRP | 0.21 |
| RRIRTRPPRLPRPRPRPNECPRP | -0.0286 |
| RRIRTRPPRLPRPRPRPNFWPRP | 0.31 |
| RRIRTRPPRLPRPRPRPNGCPRP | 0.0101 |
| RRIRTRPPRLPRPRPRPNGKPRP | -0.189 |
| RRIRTRPPRLPRPRPRPNGRPRP | -0.0231 |
| RRIRTRPPRLPRPRPRPNHLPRP | -0.15 |
| RRIRTRPPRLPRPRPRPNHTPRP | -0.312 |
| RRIRTRPPRLPRPRPRPNHVPRP | -0.0538 |
| RRIRTRPPRLPRPRPRPNIEPRP | 0.105 |
| RRIRTRPPRLPRPRPRPNIPPRP | -0.593 |
| RRIRTRPPRLPRPRPRPNIQPRP | -0.586 |
| RRIRTRPPRLPRPRPRPNKQPRP | -0.207 |
| RRIRTRPPRLPRPRPRPNNFPRP | -0.381 |
| RRIRTRPPRLPRPRPRPNQMPRP | -0.334 |
| RRIRTRPPRLPRPRPRPNQQPRP | 0.00192 |
| RRIRTRPPRLPRPRPRPNQVPRP | 0.00376 |
| RRIRTRPPRLPRPRPRPNQYPRP | -0.446 |
| RRIRTRPPRLPRPRPRPNRVPRP | -0.0472 |

| Sequence | shrunken log2 fold change |
| --- | --- |
| RRIRTRPPRLPRPRPRPNTKPRP | -0.337 |
| RRIRTRPPRLPRPRPRPNTRPRP | -0.318 |
| RRIRTRPPRLPRPRPRPNTSPRP | -0.43 |
| RRIRTRPPRLPRPRPRPNTYPRP | -0.614 |
| RRIRTRPPRLPRPRPRPNVGPRP | 0.202 |
| RRIRTRPPRLPRPRPRPNVIPRP | -0.372 |
| RRIRTRPPRLPRPRPRPNVTPRP | -0.182 |
| RRIRTRPPRLPRPRPRPNVVPRP | -0.0363 |
| RRIRTRPPRLPRPRPRPNWGPRP | -0.0445 |
| RRIRTRPPRLPRPRPRPNYHPRP | -1.14 |
| RRIRTRPPRLPRPRPRPPATPRP | 0.213 |
| RRIRTRPPRLPRPRPRPPCGPRP | 0.4 |
| RRIRTRPPRLPRPRPRPPCIPRP | 0.00685 |
| RRIRTRPPRLPRPRPRPPCLPRP | -0.0659 |
| RRIRTRPPRLPRPRPRPPEIPRP | 0.0182 |
| RRIRTRPPRLPRPRPRPPEPPRP | 0.416 |
| RRIRTRPPRLPRPRPRPPFEPRP | 0.156 |
| RRIRTRPPRLPRPRPRPPGWPRP | 0.758 |
| RRIRTRPPRLPRPRPRPPIGPRP | 0.0445 |
| RRIRTRPPRLPRPRPRPPIYPRP | -0.305 |
| RRIRTRPPRLPRPRPRPPMAPRP | 0.176 |
| RRIRTRPPRLPRPRPRPPMFPRP | -0.097 |

| Sequence | shrunken log2 fold change |
| --- | --- |
| RRIRTRPPRLPRPRPRPPMIPRP | -0.44 |
| RRIRTRPPRLPRPRPRPPNYPRP | -0.101 |
| RRIRTRPPRLPRPRPRPPPTPRP | 0.828 |
| RRIRTRPPRLPRPRPRPPQLPRP | 0.0198 |
| RRIRTRPPRLPRPRPRPPQWPRP | 0.274 |
| RRIRTRPPRLPRPRPRPPRCPRP | 0.391 |
| RRIRTRPPRLPRPRPRPPSIPRP | 0.114 |
| RRIRTRPPRLPRPRPRPPTQPRP | 0.282 |
| RRIRTRPPRLPRPRPRPPWMPRP | -0.00314 |
| RRIRTRPPRLPRPRPRPPYLPRP | -0.365 |
| RRIRTRPPRLPRPRPRPQAMPRP | 0.00573 |
| RRIRTRPPRLPRPRPRPQAPPRP | -0.1 |
| RRIRTRPPRLPRPRPRPQEAPRP | 0.0871 |
| RRIRTRPPRLPRPRPRPQEMPRP | -0.0617 |
| RRIRTRPPRLPRPRPRPQFKPRP | 2.23 |
| RRIRTRPPRLPRPRPRPQFMPRP | 0.0325 |
| RRIRTRPPRLPRPRPRPQGEPRP | -0.0823 |
| RRIRTRPPRLPRPRPRPQGFPRP | 0.0424 |
| RRIRTRPPRLPRPRPRPQGVPRP | -0.0062 |
| RRIRTRPPRLPRPRPRPQHRPRP | -0.0713 |
| RRIRTRPPRLPRPRPRPQHVPRP | -0.0575 |
| RRIRTRPPRLPRPRPRPQIFPRP | -0.716 |

| Sequence | shrunken log2 fold change |
| --- | --- |
| RRIRTRPPRLPRPRPRPQIKPRP | -0.0374 |
| RRIRTRPPRLPRPRPRPQITPRP | -0.474 |
| RRIRTRPPRLPRPRPRPQLRPRP | -0.12 |
| RRIRTRPPRLPRPRPRPQPFPRP | 0.0325 |
| RRIRTRPPRLPRPRPRPQQMPRP | -0.0941 |
| RRIRTRPPRLPRPRPRPQQWPRP | 0.46 |
| RRIRTRPPRLPRPRPRPQSRPRP | -0.0689 |
| RRIRTRPPRLPRPRPRPQSSPRP | -0.08 |
| RRIRTRPPRLPRPRPRPQTFPRP | -0.567 |
| RRIRTRPPRLPRPRPRPQVCPRP | 0.0443 |
| RRIRTRPPRLPRPRPRPQVHPRP | -0.221 |
| RRIRTRPPRLPRPRPRPQVMPRP | -0.133 |
| RRIRTRPPRLPRPRPRPQWFPRP | -0.0925 |
| RRIRTRPPRLPRPRPRPQWHPRP | -0.461 |
| RRIRTRPPRLPRPRPRPQWNPRP | -0.832 |
| RRIRTRPPRLPRPRPRPQYNPRP | -0.856 |
| RRIRTRPPRLPRPRPRPRCFPRP | 0.204 |
| RRIRTRPPRLPRPRPRPREPPRP | 1.21 |
| RRIRTRPPRLPRPRPRPRESPRP | 0.207 |
| RRIRTRPPRLPRPRPRPREVPRP | 0.442 |
| RRIRTRPPRLPRPRPRPRFHPRP | 0.192 |
